The values below are quoted from earlier work in paper PMC12757075.

In the data set the target is actin filament barbed end (Oryctolagus cuniculus) (UniProt P68135).

As to VASP (from UniProt P50552), the Kd is 9.2 nM.
